# From the supplement of paper PMC12042874
# ± gives the uncertainty stated by the source.
# Assay: amyloid nucleation score (Sup35N fusion, yeast selection) (log enrichment); library NNK1; higher = more nucleation; inactive = no reads after selection
# How it was run: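 Three technical output replicates were used for random libraries. Psi-negative yeast expressing peptides of 20 random codons fused to Sup35N were induced with 100 μM copper sulfate for 24 hours and grown 7 days at 30°C on medium lacking adenine and uracil, and input and output plasmid inserts were Illumina-sequenced, excluding sequences with under 100 input reads. The nucleation score is the DiMSum log enrichment of output over input reads, centred on the mode score of non-aggregating sequences.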
row,Substance,amyloid nucleation score
1,VLLTMWFNFFLLRNRGVVFS,2.65 ± 0.08
2,VLLVGDPDLPRKRRLRRIAE,1.23 ± 0.62
3,VLMMV,1.28 ± 0.48
4,VLQQGTSLTKYV,0.509 ± 0.42
5,VLRWYEDNPFC,0.291 ± 0.32
6,VLSDSDINMRLEKEFYVIIS,inactive
7,VLSSDGGGFVYFRYSGYTCR,0.253 ± 0.67
8,VLSSGESIRNTAINVEVEHQ,0.449 ± 0.38
9,VLSVGQESTMISESGFNTEN,-0.001 ± 0.55
10,VLSVSCVRYISGVRERWYVL,1.23 ± 0.6
11,VLVFCVTMVRNYSWCIGWRI,0.035 ± 0.44
12,VLVGCLASQRVISENKGCKC,0.722 ± 0.81
13,VLWHGLVVRSGNVEIVRSMC,-0.175 ± 0.96
14,VLWSCDAMWWVRIKSTYVWN,0.495 ± 1.2
15,VLWTLVKIPHFTPNIMFRYY,0.053 ± 1.1
16,VLYTTLHGFYHNCWLWLRYS,-0.191 ± 0.42
17,VMCAGQESESIRGGYSEVNG,1.17 ± 0.39
18,VMGVLYSRADSVVEIGLLRV,-0.972 ± 1
19,VMILNLIVDTRLRVSRHLHV,2.88 ± 0.28
20,VMLTPRDLGLVPIGLDHVRG,-0.236 ± 0.38
21,VMPSSELYF,0.349 ± 0.39
22,VMRPFWMMMFYFYVEPEALS,-0.584 ± 0.95
23,VMTWTLCRTRG,-0.275 ± 0.4
24,VMVWHCRSATTWWKQVTMNL,-0.584 ± 2.1
25,VNCISHGACMCRWFYDSGKK,0.847 ± 0.38

row,Substance,amyloid nucleation score
1,VNCSRYRGESASDNWSGALL,-0.186 ± 0.85
2,VNDWALVLSNLDSNVLSSRT,0.566 ± 0.24
3,VNFILNF,5.41 ± 0.066
4,VNFYDLVL,0.318 ± 0.46
5,VNHCMMHEYLGGLLSSVIG,0.773 ± 0.24
6,VNLGKNFTQLLIGRCVSKVR,0.417 ± 0.33
7,VNNIVRSICGIKGEVRFLCG,0.094 ± 1.2
8,VNQFLRAMVPLKLRYRYFCL,1.02 ± 0.74
9,VNSTEGP,-0.989 ± 2.7
10,VPCMWRFTHVSKYEGKSRTL,-0.452 ± 0.42
11,VPIMYNFGINDVGSVCDCTD,7.259 ± 0.053
12,VPPCEWHRRTYR,0.176 ± 1.1
13,VPTYGFGLEIFKDFSMNR,-0.926 ± 0.44
14,VPVVDNIVSIL,-0.718 ± 1.7
15,VPVYNMNFYAVLHILSFCLD,4.18 ± 0.057
16,VPWSFLQRSWLDIWECPYKL,-0.276 ± 0.41
17,VQAKYNSSLGESNRDSDCAS,0.187 ± 0.34
18,VQDLYCIRYL,-1.39 ± 2.4
19,VQEYGASCKSMTGLGTLKCK,0.876 ± 0.81
20,VRDMHSHTLGYCRDGMYYFK,-0.403 ± 0.84
21,VRGSVLCHRSLHETKNFL,0.279 ± 0.38
22,VRGSVRCNVDYLICVYVHR,1.46 ± 0.51
23,VRHCTQINSPFYYDFN,-0.318 ± 0.3
24,VRKYRRWSRMIWGCYNNFVF,-1.44 ± 0.53
25,VRLNNCNLFFCYMTRIAFAE,4.96 ± 0.067

row,Substance,amyloid nucleation score
1,VRMKPCSLLNLGTYPAQNVM,-0.888 ± 1.9
2,VRNHVYGLCVSWTAGDKCNR,5.03 ± 0.087
3,VRNVG,-0.14 ± 0.59
4,VRNVISNKYCRAGYLTKYLL,-0.16 ± 0.22
5,VRRSEHSRLSYEWGECLRLT,-0.174 ± 0.38
6,VRSFNRGFKMHTYIPTHFLW,-0.55 ± 0.26
7,VRSKLPPGSFDSFWGWWEKK,-0.343 ± 0.45
8,VRSLAFTNVYFEEGAYVANT,-0.532 ± 0.73
9,VRSPFSIHRRFLTLGIQEFS,1.4 ± 0.74
10,VRVEKNCNFWLFSIVSCLPH,8.49 ± 0.065
11,VRVFTHSSVGREE,-0.177 ± 0.25
12,VRYEIAA,-1.06 ± 2.4
13,VSAND,-0.547 ± 0.4
14,VSCRR,inactive
15,VSDHT,1.02 ± 0.47
16,VSEHSFWIWGRVPQLTQIIA,inactive
17,VSESDKEGLEK,-1.17 ± 1.6
18,VSFIYFRVWILAMDY,0.842 ± 0.37
19,VSFRFLMGFVYVKCWSSSLD,1.38 ± 0.69
20,VSLCVSFFFYRSAVITVYAH,0.282 ± 0.58
21,VSLVAGTWFYFWHNALVTYH,-0.067 ± 0.36
22,VSNERSWMRCFFMGSRIAHG,-0.735 ± 0.4
23,VSNNYRDV,0.807 ± 0.72
24,VSNTWYLTVNLFLYIIPCN,6.755 ± 0.058
25,VSQTPWTLYLN,0.229 ± 0.26

row,Substance,amyloid nucleation score
1,VSRFFGNRRTNSNENTAGVA,-1.15 ± 0.43
2,VSRVNYNVFSVGISKSVCD,0.201 ± 0.85
3,VSSFLLRSFRKCRPLCYIVR,3.89 ± 0.085
4,VSSFWRELVPYGMVCRESSL,0.178 ± 0.56
5,VSSYAIYEECNLPGKAGKPC,-0.213 ± 0.63
6,VSTGWKRLKFQLVIGCFS,0.502 ± 0.53
7,VSTLA,inactive
8,VSVGR,-0.153 ± 1.4
9,VSVKSNGWMSWWLSWQVPKH,-0.147 ± 0.63
10,VSWDSMYMAMPWVIVHVL,inactive
11,VTDFVALFVIGTGPVVGLRW,1.27 ± 0.43
12,VTKVTLMLFLSCWLF,-0.677 ± 0.47
13,VTMDCLMLPYRKGNPN,0.996 ± 0.64
14,VTQIKPVRRLGGL,-0.692 ± 0.87
15,VTQSYDFKSLQIISIQN,1.39 ± 0.12
16,VTRYTLVYFPLSLIRSTPAN,0.62 ± 0.36
17,VTRYVPECGWKDLDLASWYL,1.34 ± 0.58
18,VTSSWNSDAFTWFYNDSWCL,inactive
19,VTWGSSPMQKFSMVQIKS,0.564 ± 0.48
20,VTYKEQNGLLLFAPDSVQRD,inactive
21,VTYTEYCSVLLKTH,-1.81 ± 2.4
22,VVAAILHKLS,-0.16 ± 0.41
23,VVASSCSFNRRLESSAGYL,0.744 ± 0.37
24,VVAVE,-0.27 ± 0.38
25,VVCFMPVLMAVQMGCSHWNY,3.55 ± 0.063

row,Substance,amyloid nucleation score
1,VVHLSLCMRCALWRYRELVC,1.12 ± 0.55
2,VVILYIDRFGVLFHHLG,0.821 ± 1.1
3,VVKVWPYYSYVSMV,-0.114 ± 0.55
4,VVLQVMFARAWWFF,0.185 ± 0.33
5,VVLRLRSSYFGGLAGMA,0.121 ± 0.33
6,VVNITYFPMVSVRLICGNVP,6.569 ± 0.063
7,VVQGCIYYCHNVWYLDVFSF,4.62 ± 0.089
8,VVSDNSMDV,0.39 ± 0.47
9,VVSVMLAFYTKDSFVVWLNL,1.02 ± 0.15
10,VVTQLLEFVSITSEGWSQHM,2.57 ± 0.096
11,VVVFSTF,-0.376 ± 1.4
12,VVVFVSE,0.997 ± 0.65
13,VVVIFLHGIWCGLRL,-0.208 ± 0.75
14,VVVRLRFRNSIPSILSQR,-0.304 ± 0.71
15,VWCVFFLVLYFYR,0.422 ± 0.57
16,VWEFD,-0.537 ± 0.42
17,VWFRCWSPEVENGHVCLSCS,-0.026 ± 0.41
18,VWFYRLIVSEVGFFRVKLKM,-1.58 ± 1.4
19,VWGDRWTTVSGRSAEYRTKS,1.34 ± 0.15
20,VWLGTEFFVSCLACMLVSVL,-1.05 ± 0.54
21,VWRSVSRCSCVSSSIGGVTV,-0.868 ± 0.39
22,VWSILCMCNRSHLWVKSSKR,0.988 ± 0.35
23,VWTSWDGRSLIAEWVCYLE,6.232 ± 0.048
24,VYFIRIHLLFRHRTGGICNT,1.06 ± 0.72
25,VYITVFMIAYMLLSDTDHE,0.377 ± 0.31

row,Substance,amyloid nucleation score
1,VYRTNLSINSTFIWTHELRS,0.525 ± 0.18
2,VYSRSWPGFLKWLLASIFF,0.694 ± 1.2
3,WASFGPLGAQVPDRRFIYMP,0.151 ± 0.81
4,WAVSGVDKVTRLGSEGVMQS,-0.809 ± 0.9
5,WCGVFESGNRPKSQGKGSKW,0.159 ± 0.55
6,WCSAMKISTRAPRWENIWSM,0.612 ± 0.62
7,WCSNVNFDVRVDNIKSFRWF,5.864 ± 0.053
8,WDETY,4.62 ± 0.07
9,WDRTTCVYSLLPMGNSPKVE,0.144 ± 0.45
10,WDTDVLRDNWSQLRFLVSGR,-0.216 ± 0.21
11,WDWSERLQAFWSVTLSSNSW,0.517 ± 0.71
12,WEYEAGNFDSVMMVLLLSCY,1.25 ± 0.61
13,WFAGAGLIMRNVRSGW,-0.126 ± 0.66
14,WFTDGT,inactive
15,WFTGGFRVIMGS,0.728 ± 0.97
16,WFWLIRMYMSFYVVAFVGSG,1.31 ± 0.74
17,WGRMV,0.248 ± 0.74
18,WHEWNSVEWVGRSWTTDFEW,inactive
19,WHSMKMCF,0.115 ± 0.45
20,WHSSSLMWHNKLS,inactive
21,WHWVAEWSMRTYSGLSIECY,inactive
22,WHYNMLYCLLRRSRLCWNIV,-0.403 ± 0.48
23,WIAFERPAYVDSWHLTRNRP,0.109 ± 0.24
24,WILVGMGLGFHFFW,0.86 ± 1.1
25,WISFYSPCMGRAISLSVVDV,0.68 ± 0.54

row,Substance,amyloid nucleation score
1,WLAHRNWLC,0.103 ± 0.7
2,WLKVGGEFSWSVQSVY,0.071 ± 0.55
3,WLKVRNTR,-0.178 ± 0.49
4,WLLVNMDDYLAGYCITHFRN,-0.359 ± 0.58
5,WLTRFRRGAACRDLLWRGER,-0.096 ± 1.4
6,WLTTGFLFVKLGGHKESSVQ,0.015 ± 0.33
7,WMAFWGWVLYYFSFHFTFNV,0.079 ± 0.48
8,WMFMNLVGVMFDGHGPGGSA,1.66 ± 0.28
9,WNRYWNLFYRGTLDSTAIGS,-1.76 ± 2.4
10,WNSSYDGRFIAYAMQWSNKE,-0.118 ± 0.48
11,WPLLPVELNVSTRHENGLLM,1.4 ± 0.34
12,WPLRESCGICERRAWCRSAY,0.923 ± 0.63
13,WPWNEPY,-0.251 ± 0.48
14,WQLTGISIWARFMFYVWQGK,-1.34 ± 0.92
15,WRARLWDLNPWHVAREMIAG,0.096 ± 0.93
16,WRGCVNFCEKKPGVGVSSV,0.076 ± 0.55
17,WRTSEFSHSLVKYVLSRVLT,1.31 ± 0.56
18,WSARHKHNTKCYFVRGQ,-0.081 ± 0.34
19,WSFVYMENVIARYEVSVG,0.296 ± 0.25
20,WSGIIELC,1.74 ± 0.78
21,WSIKFQS,-0.123 ± 0.49
